Measurements from US20220396612A1 (UNIVERSIT DE TOURS, published 2022).

Key:
[1] = target: T1, virus-like particles (VLPs) of BK polyomavirus VP-1 protein, serotype Ia (BK virus (BKPyV), serotype Ia, UniProt P03088 1-361); experiment: ELISA on coated VLP; supernatant 1/40
T1 construct: self-assembled native VLPs coated on ELISA plates; also called VLP Ia; BKV VP-1, serotype Ia
T1 chain: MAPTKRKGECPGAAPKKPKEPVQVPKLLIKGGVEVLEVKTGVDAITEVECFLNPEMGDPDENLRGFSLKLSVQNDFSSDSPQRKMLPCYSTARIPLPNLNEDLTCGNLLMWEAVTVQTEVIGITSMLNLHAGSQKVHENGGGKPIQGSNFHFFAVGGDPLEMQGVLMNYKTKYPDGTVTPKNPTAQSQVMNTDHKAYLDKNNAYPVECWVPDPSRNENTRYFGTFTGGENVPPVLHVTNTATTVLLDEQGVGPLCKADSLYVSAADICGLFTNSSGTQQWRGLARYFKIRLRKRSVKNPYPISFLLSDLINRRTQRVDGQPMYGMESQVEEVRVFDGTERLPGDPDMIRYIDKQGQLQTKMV
Experimental: (§1) To do this, the VLPs produced were deposited at a concentration of 1 μg/mL in PBS and incubated overnight at +4° C. The wells were then blocked for 1 h at +37° C. with a PBS/FCS (phosphate-buffered saline/fetal calf serum) mixture. After dilution in a dilution buffer containing FCS, PBS and Tween® 20, the various hybridoma culture supernatants were added for 1 h at +37° C. The wells were washed four times in a row with Wash Buffer and a secondary anti-mouse antibody coupled to peroxidase was added to the 1:2000 dilution for 1 h at +37° C. The wells were washed four more times and the substrate (OPD (ortho phenylene diamine)+H₂O₂) was added for 30 min at room temperature. A stop solution (H₂SO₄ 4N) was then added and each well was read by measuring the absorbance at 492 nm with a spectrophotometer. The value obtained for the average of the control wells (PBS in the first step) is subtracted from the optical density values obtained for each well.

[2] = target: T2, virus-like particles (VLPs) of BK polyomavirus VP-1 protein, serotype Ib2 (BK virus (BKPyV), serotype Ib2, PA …, UniProt P03088 1-362); experiment: ELISA on coated VLP; supernatant 1/40
T2 construct: native VLPs; also the immunogen; also called VLP Ib2; BK Ib2
T2 chain: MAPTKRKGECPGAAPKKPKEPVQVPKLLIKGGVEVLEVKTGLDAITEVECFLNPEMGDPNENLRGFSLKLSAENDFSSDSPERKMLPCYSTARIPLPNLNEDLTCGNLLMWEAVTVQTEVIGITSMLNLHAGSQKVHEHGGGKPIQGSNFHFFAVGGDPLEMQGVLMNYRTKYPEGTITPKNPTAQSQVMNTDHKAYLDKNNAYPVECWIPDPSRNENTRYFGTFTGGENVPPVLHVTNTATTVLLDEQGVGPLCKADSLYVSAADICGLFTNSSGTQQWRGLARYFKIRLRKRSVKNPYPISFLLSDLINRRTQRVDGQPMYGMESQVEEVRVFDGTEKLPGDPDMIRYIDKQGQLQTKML
Experimental: as §1

[3] = target: T3, virus-like particles (VLPs) of BK polyomavirus VP-1 protein, serotype II (BK virus (BKPyV), serotype II, UniProt P14996 1-362); experiment: ELISA on coated VLP; supernatant 1/40
T3 construct: native VLPs; also called VLP II
T3 chain: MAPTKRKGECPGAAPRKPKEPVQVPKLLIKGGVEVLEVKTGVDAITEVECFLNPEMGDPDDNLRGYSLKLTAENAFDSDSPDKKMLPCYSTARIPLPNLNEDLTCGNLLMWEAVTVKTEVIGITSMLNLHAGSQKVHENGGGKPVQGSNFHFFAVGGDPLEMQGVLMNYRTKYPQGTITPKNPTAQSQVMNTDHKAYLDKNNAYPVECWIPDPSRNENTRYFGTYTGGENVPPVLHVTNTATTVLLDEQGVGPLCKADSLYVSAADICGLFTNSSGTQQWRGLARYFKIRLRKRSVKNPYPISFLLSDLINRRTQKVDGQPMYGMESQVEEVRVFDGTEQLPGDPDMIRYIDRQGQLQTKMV
Experimental: as §1

[4] = target: T1, virus-like particles (VLPs) of BK …; experiment: ELISA on coated VLP; supernatant 1/640
Experimental: as §1

[5] = target: T2, virus-like particles (VLPs) of BK …; experiment: ELISA on coated VLP; supernatant 1/640
Experimental: as §1

[6] = target: T3, virus-like particles (VLPs) of BK …; experiment: ELISA on coated VLP; supernatant 1/640
Experimental: as §1

[7] = target: T4, virus-like particles (VLPs) of BK polyomavirus VP-1 protein, serotype IV (BK virus (BKPyV), serotype IV, UniProt P14996 1-362); experiment: ELISA on coated VLP; supernatant 1/640
T4 construct: native VLPs; also called VLP IV
T4 chain: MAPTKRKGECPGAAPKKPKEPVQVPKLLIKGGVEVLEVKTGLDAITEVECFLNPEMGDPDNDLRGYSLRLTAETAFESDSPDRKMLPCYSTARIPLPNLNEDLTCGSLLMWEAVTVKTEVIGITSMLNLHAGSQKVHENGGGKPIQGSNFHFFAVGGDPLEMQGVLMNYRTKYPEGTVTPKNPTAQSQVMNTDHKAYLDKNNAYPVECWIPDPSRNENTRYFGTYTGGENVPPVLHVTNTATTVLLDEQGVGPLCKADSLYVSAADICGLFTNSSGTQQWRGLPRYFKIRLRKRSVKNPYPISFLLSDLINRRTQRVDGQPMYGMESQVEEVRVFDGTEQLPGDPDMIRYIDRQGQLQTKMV
Experimental: as §1

[8] = target: T1, virus-like particles (VLPs) of BK …; experiment: ELISA on coated VLP; supernatant 1/1 280
Experimental: as §1

[9] = target: T2, virus-like particles (VLPs) of BK …; experiment: ELISA on coated VLP; supernatant 1/1 280
Experimental: as §1

[10] = target: T3, virus-like particles (VLPs) of BK …; experiment: ELISA on coated VLP; supernatant 1/1 280
Experimental: as §1

[11] = target: T4, virus-like particles (VLPs) of BK …; experiment: ELISA on coated VLP; supernatant 1/1 280
Experimental: as §1

[12] = target: T2, virus-like particles (VLPs) of BK …; experiment: ELISA on not denatured VLP (threshold OD>0.5)
Experimental: (§2) The wells were then blocked for 1 hour at +37° C. with a PBS/SVF mixture. After dilution in a dilution buffer containing SVF, PBS and Tween® 20, the individual culture supernatants or purified antibodies were added for 1 hour at +37° C. The wells were washed four times in a row with Wash Buffer and a secondary anti-mouse peroxidase antibody was added to the 1/2000 dilution for 1 hour at +37° C. The wells were washed again four times in a row and the substrate was added for 30 minutes at room temperature. A stop solution was added and then each well was read by measuring the absorbance at 492 nm with a spectrophotometer. The value obtained for the average of the control wells (PBS in the first step) was subtracted from the optical density values obtained for each well (detection threshold: OD>0.5).

[13] = target: T3, virus-like particles (VLPs) of BK …; experiment: ELISA on not denatured VLP (threshold OD>0.5)
Experimental: as §2

B1: monoclonal antibody ‘H6’ secreted by clone BK6A2H6 (antibody, V domains shown)
VH: EVQLQQSGPELVKPGASVKISCKASGYSFTGYFMNWVKQSHGKSLEWIGRINPYNGDTFYNQKFKGKATLTVDKSSSTAHMELLSLTSEDSAVYYCGSYYYGDYFDYWGQGTTLTVSS
VL: SIVMTQIPKFLLVSEGDRVTITCKASQSVSNDVAWYQQKSGQSPKLLIYYASNRYTGVPDRFTGSGYGTDFTFTISTVQAEDLAVYFCQQDYSSPLTFGAGTKLELKR
OD 492 nm [1]: 3.18 OD | OD 492 nm [2]: 0.67 OD | OD 492 nm [3]: 0.44 OD | OD 492 nm [4]: 2.49 OD | OD 492 nm [5]: 0.17 OD | OD 492 nm [6]: 0.08 OD | OD 492 nm [7]: 1.59 OD | OD 492 nm [8]: 0.81 OD | OD 492 nm [9]: 0.14 OD | OD 492 nm [10]: 0.08 OD | OD 492 nm [11]: 0.91 OD

B2: monoclonal antibody ‘F6’ secreted by clone BK6A2F6 (antibody)
heavy: EVQLQQSGPELVKPGASVKISCKASGYSFTGYFMNWVKQSHGKSLEWIGRINPYNGDTFYNQKFKGKATLTVDKSSSTAHMELLSLTSEDSAVYYCGSYYYGDYFDYWGQGTTLTVSSAKTTPPSVYPLAPGSAAQTNSMVTLGCLVKGYFPEPVTVTWNSGSLSSGVHTFPAVLQSDLYTLSSSVTVPSSTWPSETVTCNVAHPASSTKVDKKIVPRDCGCKPCICTVPEVSSVFIFPPKPKDVLTITLTPKVTCVVVDISKDDPEVQFSWFVDDVEVHTAQTQPREEQFNSTFRSVSELPIMHQDWLNGKEFKCRVNSAAFPAPIEKTISKTKGRPKAPQVYTIPPPKEQMAKDKVSLTCMITDFFPEDITVEWQWNGQPAENYKNTQPIMDTDGSYFVYSKLNVQKSNWEAGNTFTCSVLHEGLHNHHTEKSLSHSPGK
light: […]
OD 492 nm [1]: 3.16 OD | OD 492 nm [2]: 1.03 OD | OD 492 nm [3]: 0.9 OD | OD 492 nm [4]: 3.07 OD | OD 492 nm [5]: 0.19 OD | OD 492 nm [6]: 0.14 OD | OD 492 nm [7]: 2.86 OD | OD 492 nm [8]: 2.11 OD | OD 492 nm [9]: 0.11 OD | OD 492 nm [10]: 0.09 OD | OD 492 nm [11]: 2.04 OD | OD 492 nm [12]: 2.7 OD | OD 492 nm [13]: 3 OD

B3: monoclonal antibody ‘18A2’ derived from hybridoma 18A2 (antibody, V domains shown)
VH: DVQLQESGPGLVKPSQSLSLTCSVTGYSITSGYYWNWIRQFPGNKLEWMGYISYDGSNNYNPSLKNRISITRDTSKNQFFLKLNSVTTEDTATYYCARWEGTTDYWGQGTTLTVSS
VL: not shown
notes: Mouse hybridoma antibody
OD 492 nm [12]: 0.565 OD | OD 492 nm [13]: 1.71 OD
